Target: anti-DENV antibody with the 3Cam2 variable region and the LALA Fc variant (human)

“mouse C1q (from UniProt P98086 23-245; P14106 26-253; Q02105 30-246) (complex)” was tested. Which C3b ELISA (complement activation) on plate-immobilised antibody incubated with AG129 mouse serum; absorbance ratio versus the well without antibody immobilization did it give?
Its C3b ELISA (complement activation) on plate-immobilised antibody incubated with AG129 mouse serum; absorbance ratio versus the well without antibody immobilization is 1.5 fold.

From paper PMC10204484
